T1: OutD N0-N1-N2 domains (residues 1 to 258 of signal peptide-less OutD), purified (Dickeya dadantii, UniProt Q01565 28-285)
T1 construct: secretin OutD (GspD) of Dickeya dadantii, N0, N1 and N2 domains, residues A1 to V258; numbers count on: the mature protein
T1 sequence: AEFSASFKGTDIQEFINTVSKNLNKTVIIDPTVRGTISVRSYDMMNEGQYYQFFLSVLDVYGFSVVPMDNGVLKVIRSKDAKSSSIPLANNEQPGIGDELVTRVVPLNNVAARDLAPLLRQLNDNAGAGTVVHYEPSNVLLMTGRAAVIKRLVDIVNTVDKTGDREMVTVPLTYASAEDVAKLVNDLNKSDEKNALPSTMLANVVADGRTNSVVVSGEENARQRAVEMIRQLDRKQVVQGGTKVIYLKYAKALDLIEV

B1: OutD N0 domain (residues 1 to 85 of signal peptide-less OutD), purified (domain or fragment)
chain: AEFSASFKGTDIQEFINTVSKNLNKTVIIDPTVRGTISVRSYDMMNEGQYYQFFLSVLDVYGFSVVPMDNGVLKVIRSKDAKSSS
notes: secretin OutD (GspD) of Dickeya dadantii, N0 domain, residues A1 to S85; numbers count on: the mature protein; 15N-labelled in the reciprocal experiment
B2: OutB HR domain (residues P112 to K220), purified (domain or fragment)
chain: PAKLVTGWQTAKPGELPYIAFSAHVYTSAPDKRSVTLNGERYREGDSPYQGLVIEQIEQDMVIFSFNGEPFILDSLQDWPGGKPGDDAAQGNEQEPTSKPEQTVRTTKK
notes: OutB (GspB) of Dickeya dadantii, conserved periplasmic domain, residues 112 to 220; uniformly 15N-labelled where it was the observed protein; the NMR methods speak of residues 112 to 193, the results and legends of 112 to 220; also called OutB^112–220; 15N-labeled OutB HR domain; source: E. coli BL21(DE3), purified (glutathione Sepharose, on-column PreScission cleavage, Superdex S200); not shown: …

Key:
[1] = target: OutD N0 domain (residues 1 to 85 of signal peptide-less OutD), purified (Dickeya dadantii) (UniProt Q01565); assay: NMR titration; competition: 15N OutB HR 40 μM, unlabelled OutD N0 60 μM, unlabelled OutC HR 120, 240 and 360 μM; HSQC chemical shifts
[2] = target: B2; assay: as above; details: both partners purified
[3] = target: T1, OutD N0-N1-N2 domains (residues 1 to …); assay: NMR titration; 1H-15N HSQC of a 15N-labelled domain alone or with the unlabelled partner; each protein 200 μM; 15°C, 20 mM Tris-HCl pH 7.0, 10% D2O; details: both partners purified

OutC HR domain (residues A78 to S158) (domain or fragment)
Kd [1]: 1000 µM

B1
Kd [2]: ~10 µM

B2
binding result [3]: binds

— paper PMC9239104, “Scaffolding Protein GspB/OutB Facilitates Assembly of the Dickeya dadantii Type 2 Secretion System by Anchoring the Outer Membrane Secretin Pore to the Inner Membrane and to the Peptidoglycan Cell Wall” (mBio, 2022)
